Measurements reported in US8420051B2, “Muteins of hNGAL and related proteins with affinity for a given target” (Technische Universitaet Meunchen, priority 2008, dated 2013).
Where two headings read alike, the source gives them in different places.

What was measured:
[1] = target: selected hNGAL muteins from the library randomized at positions 33, 36, 41, 52, 54, 68, 70, 79, 81, 134, 136 and 138 (Homo sapiens, UniProt P80188); test: ELISA, hexachloronorbornene hapten; assay type: binding; settings: preliminary, data not shown
selected hNGAL muteins from the library randomized at positions 33, 36, 41, 52, 54, 68, 70, 79, 81, 134, 136 and 138, sequence (P80188 21-198, stated change not applied): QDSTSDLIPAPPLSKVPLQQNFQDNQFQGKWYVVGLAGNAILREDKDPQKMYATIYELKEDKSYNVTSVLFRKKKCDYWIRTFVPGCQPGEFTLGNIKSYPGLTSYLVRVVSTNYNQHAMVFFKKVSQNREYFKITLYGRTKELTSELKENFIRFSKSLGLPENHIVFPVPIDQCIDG
From the text: The hNGAL library obtained in Example 2 was used to generate muteins having affinity to a hexachloronorbonene hapten. In more detail, the hexachloronorbornene hapten used was hexachloronorbornene N—(CH2)5—COOH the synthesis of which was reported by Hilvert et al., J. Am. Chem. Soc. 1989, Vol. 111, 9261-9262 (compound 2 in FIG. 1 of Hilvert et al) which represents a transition state analogue for the [4+2] Diels-Alder reaction (see also, Xu et al., Science, 1999, Vol. 286, 2345-2348). Generation of the hNGAL muteins were carried out essentially in accordance with the experimental procedure as described in Example 3 above and muteins with binding activity to the to hexachloronorbornene hapten were isolated and characterized by ELISA.

[2] = target: T1, hNGAL mutein Tb7, SEQ ID NO: 2 (Gln28His, Val33Gln, Leu36Arg, Ile41Ala, Tyr52Thr, Thr54Gln, Ser68Ala, Leu70Arg, Trp79Ala, Arg81Met, Cys87Ser, Lys134Ser, Tyr138L (Homo sapiens, UniProt P80188, C107S/I61A/K154S/L56R/L90R/Q48H/R101M/S88A/T165A/T74Q/V53Q/W99A/Y158L/Y72T)); test: SPR (Biacore), immobilized Me•DTPA-RNase; assay type: binding; settings: 5 μl/min; for Kd: from the kinetic analysis, read-out: KD
T1 construct: the mature hNGAL protein and the C-terminal Strep-tag II; OmpA signal peptide (N, cleaved yes); made in house; host or cells: E. coli BL21 or TG1-F- (periplasm), plasmid pNGAL15
T1 sequence (P80188 21-198 Q48H/V53Q/L56R/I61A/Y72T/T74Q/S88A/L90R/W99A/R101M/C107S/K154S/Y158L/T165A): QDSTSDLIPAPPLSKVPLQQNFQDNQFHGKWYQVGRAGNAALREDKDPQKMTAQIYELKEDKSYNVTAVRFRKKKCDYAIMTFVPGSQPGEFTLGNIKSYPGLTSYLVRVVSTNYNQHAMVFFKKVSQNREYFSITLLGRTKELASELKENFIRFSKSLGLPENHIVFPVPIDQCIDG
Experimental: (§1) Real time analysis of hNGAL variants was performed on a BIAcore X system (BIAcore, Uppsala, Sweden) using PBS/t (PBS containing 0.005% (v/v) Tween 20) as running buffer. 5 to 27 μg/ml solutions of the Me•DTPA-RNase conjugate in 10 mM Na-acetate, pH 5.0 were immobilized on a CM5 chip using standard amine coupling chemistry, resulting in a ligand density of 240 to 1800 resonance units (RU). The purified hNGAL variant was applied at a flow rate of 5 or 25 μl/min at concentrations of 0.5 up to 500 nM. The sensorgrams were corrected by subtraction of the corresponding signals measured for the control channel, which had been activated and blocked with ethanolamine. Kinetic data evaluation was performed by global fitting with BIAevaluation software V 3.0 (Karlsson et al. (1991) J. Immunol. Methods 145, 229-240). Alternatively, the plateau values at the end of the association phase (after 200 s) were plotted against the applied protein concentration and fitted as in the ELISA (see above) to determine the equilibrium dissociation constants (KO.
(§2) Finally, the hNGAL variants were analyzed by SPR using a Biacore CM-5 chip with the covalently attached Y-DTPA-RNaseA conjugate and applying the purified recombinant proteins (Table 3). […] The improved KD values result primarily from slower ligand dissociation.

[3] = target: T2, hNGAL mutein Tb7.N9, SEQ ID NO: 6 (Tb7 + A79L/I80T) (Homo sapiens, UniProt P80188, C107S/I100T/I61A/K154S/L56R/L90R/Q48H/R101M/S88A/T165A/T74Q/V53Q/W99L/Y158L/Y72T); test: SPR (Biacore), immobilized Me•DTPA-RNase; assay type: binding; settings: 5 μl/min
T2 construct: the mature hNGAL protein and the C-terminal Strep-tag II; OmpA signal peptide (N, cleaved yes); made in house; host or cells: E. coli BL21 or TG1-F- (periplasm), plasmid pNGAL15
T2 sequence (P80188 21-198 Q48H/V53Q/L56R/I61A/Y72T/T74Q/S88A/L90R/W99L/I100T/R101M/C107S/K154S/Y158L/T165A): as the sequence (P80188 21-198 Q48H/V53Q/L56R/I61A/Y72T/T74Q/S88A/L90R/W99A/R101M/C107S/K154S/Y158L/T165A) above, with A79L, I80T counted along it
Experimental: as §1, §2

[4] = target: T3, hNGAL mutein Tb7.N9.N34, SEQ ID NO: 7 (Tb7.N9 + S127Q) (Homo sapiens, UniProt P80188, C107S/I100T/I61A/K154S/L56R/L90R/Q48H/R101M/S147Q/S88A/T165A/T74Q/V53Q/W99L/Y158L/Y72T); test: SPR (Biacore), immobilized Me•DTPA-RNase; assay type: binding; settings: 5 μl/min
T3 construct: the mature hNGAL protein and the C-terminal Strep-tag II; Strep-tag II (C); OmpA signal peptide (N, cleaved yes); made in house; host or cells: E. coli BL21 or TG1-F- (periplasm), plasmid pNGAL15
T3 sequence (P80188 21-198 with the stated changes): as the sequence (P80188 21-198 Q48H/V53Q/L56R/I61A/Y72T/T74Q/S88A/L90R/W99A/R101M/C107S/K154S/Y158L/T165A) above, with A79L, I80T, S127Q counted along it
Experimental: as §1, §2

[5] = target: T4, hNGAL mutein Ya6, SEQ ID NO: 8 (Tb7.N9.N34 with Thr136Ser) (Homo sapiens, UniProt P80188, C107S/I100T/I61A/K154S/L56R/L90R/Q48H/R101M/S147Q/S88A/T156S/T165A/T74Q/V53Q/W99L/Y158L/Y72T); test: SPR (Biacore), immobilized Me•DTPA-RNase; assay type: binding; settings: 5 μl/min; for Kd: from the kinetic analysis, read-out: KD
T4 construct: the mature hNGAL protein and the C-terminal Strep-tag II; Strep-tag II (C); OmpA signal peptide (N, cleaved yes); made in house; host or cells: E. coli BL21 or TG1-F- (periplasm), plasmid pNGAL15
T4 sequence (P80188 21-198 with the stated changes): as the sequence (P80188 21-198 Q48H/V53Q/L56R/I61A/Y72T/T74Q/S88A/L90R/W99A/R101M/C107S/K154S/Y158L/T165A) above, with A79L, I80T, S127Q, T136S counted along it
Experimental: as §1, §2

[6] = test system: hNGAL mutein Ya6, SEQ ID NO: 8 (Tb7.N9.N34 with Thr136Ser); test: SPR (Biacore), immobilized Me•DTPA-RNase; assay type: binding, human; settings: vs parental Tb7
Experimental: as §1, §2

[7] = target: T5, hNGAL mutein Yd5, SEQ ID NO: 9 (Tb7.N9.N34 + D77E/T136S) (Homo sapiens, UniProt P80188, C107S/D97E/I100T/I61A/K154S/L56R/L90R/Q48H/R101M/S147Q/S88A/T156S/T165A/T74Q/V53Q/W99L/Y158L/Y72T); test: SPR (Biacore), immobilized Me•DTPA-RNase; assay type: binding; settings: for Kd: from the kinetic analysis, read-out: KD
T5 construct: the mature hNGAL protein and the C-terminal Strep-tag II; OmpA signal peptide (N, cleaved yes); made in house; host or cells: E. coli BL21 or TG1-F- (periplasm), plasmid pNGAL15
T5 sequence (P80188 21-198 with the stated changes): as the sequence (P80188 21-198 Q48H/V53Q/L56R/I61A/Y72T/T74Q/S88A/L90R/W99A/R101M/C107S/K154S/Y158L/T165A) above, with D77E, A79L, I80T, S127Q, T136S counted along it
Experimental: as §1, §2

[8] = test system: hNGAL mutein Yd5, SEQ ID NO: 9 (Tb7.N9.N34 + D77E/T136S); test: SPR (Biacore), immobilized Me•DTPA-RNase; assay type: binding, human; settings: vs parental Tb7
Experimental: as §1, §2

[9] = target: T6, human neutrophil gelatinase-associated lipocalin (hNGAL, lipocalin 2, P80188), wild type, SEQ ID NO: 1 (Homo sapiens, UniProt P80188); test: SPR (Biacore), immobilized Me•DTPA-RNase; assay type: binding; settings: immobilized Y-DTPA-RNaseA
T6 construct: the mature hNGAL protein and the C-terminal Strep-tag II; OmpA signal peptide (N, cleaved yes); made in house; host or cells: E. coli BL21 or TG1-F- (periplasm), plasmid pNGAL14
T6 sequence (P80188 21-198, one chain of several): as the sequence (P80188 21-198, stated change not applied) above
Experimental: as §1, §2

[10] = target: T7, hNGAL mutein C26, SEQ ID NO: 10 (Yd5 + L42P/P48L/Q49L/I55T (155T [sic])/K75M) (Homo sapiens, UniProt P80188, C107S/D97E/I100T/I61A/I75T/K154S/K95M/L56R/L62P/L90R/P68L/Q48H/Q69L/R101M/S147Q/S88A/T156S/T165A/T74Q/V53Q/W99L/Y158L/Y72T); test: SPR (Biacore), immobilized Me•DTPA-RNase; assay type: binding
T7 construct: the mature hNGAL protein and the C-terminal Strep-tag II; OmpA signal peptide (N, cleaved yes); made in house; host or cells: E. coli BL21 or TG1-F- (periplasm), plasmid pNGAL15
T7 sequence (P80188 21-198 with the stated changes): as the sequence (P80188 21-198 Q48H/V53Q/L56R/I61A/Y72T/T74Q/S88A/L90R/W99A/R101M/C107S/K154S/Y158L/T165A) above, with L42P, P48L, Q49L, I55T, K75M, D77E, A79L, I80T, S127Q, T136S counted along it
Experimental: FIG. 2D depicts the kinetic real time analysis of hNGAL variant C26 measured on a Biacore instrument. The Y•DTPA-RNase conjugate was coupled via amine chemistry to a CM5 sensor chip (ΔRU=240) and the purified hNGAL variant C26 was applied at varying concentrations. The measured signal is shown as a grey line whereas the curve fit is depicted as a black line in each case.
as §1, §2

[11] = target: T8, hNGAL mutein L1, SEQ ID NO: 28 (C26 + R43P/E44V/K46P/D47E/K50L/M51L) (Homo sapiens, UniProt P80188, C107S/D67E/D97E/E64V/I100T/I61A/I75T/K154S/K66P/K70L/K95M/L56R/L62P/L90R/M71L/P68L/Q48H/Q69L/R101M/R63P/S147Q/S88A/T156S/T165A/T74Q/V53Q/W99L/Y158L/Y72T); test: SPR (Biacore), immobilized Y-DTPA-RNaseA; assay type: binding
T8 construct: the mature hNGAL protein and the C-terminal Strep-tag II; Strep-tag II (C); OmpA signal peptide (N, cleaved yes); made in house; host or cells: E. coli (periplasm)
T8 sequence (P80188 21-198 with the stated changes): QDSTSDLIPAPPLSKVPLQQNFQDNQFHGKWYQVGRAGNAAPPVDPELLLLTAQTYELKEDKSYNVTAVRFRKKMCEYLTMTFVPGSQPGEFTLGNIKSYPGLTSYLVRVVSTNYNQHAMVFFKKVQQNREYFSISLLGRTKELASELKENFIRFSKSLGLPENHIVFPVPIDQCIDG
Experimental: as §1
The new hNGAL variant L1 was analyzed by SPR as in Example 8 using a Biacore CM-5 chip with the covalently attached Y-DTPA-RNaseA conjugate and applying the purified recombinant protein.

[12] = target: T9, hNGAL mutein CL31, SEQ ID NO: 31 (L1 + V44M/N65D/G86S/S87P/S99N/L107F) (Homo sapiens, UniProt P80188, C107P/D67E/D97E/E64M/G106S/I100T/I61A/I75T/K154S/K66P/K70L/K95M/L127F/L56R/L62P/L90R/M71L/N85D/P68L/Q48H/Q69L/R101M/R63P/S119N/S147Q/S88A/T156S/T165A/T74Q/V53Q/W99L/Y158L/Y72T); test: SPR (Biacore), immobilized Y•DTPA-RNase; assay type: binding
T9 construct: the mature hNGAL protein and the C-terminal Strep-tag II; Strep-tag II (C); OmpA signal peptide (N, cleaved yes); made in house; host or cells: E. coli (periplasm)
T9 sequence (P80188 21-198 with the stated changes): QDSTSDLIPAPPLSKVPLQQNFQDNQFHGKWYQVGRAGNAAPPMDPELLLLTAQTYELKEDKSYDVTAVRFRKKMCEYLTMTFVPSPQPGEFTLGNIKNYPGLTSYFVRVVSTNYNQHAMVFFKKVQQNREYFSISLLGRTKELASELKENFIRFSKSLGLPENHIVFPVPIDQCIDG
Experimental: FIG. 2E depicts the kinetic real time analysis of hNGAL variant CL31 measured on a Biacore instrument at a flow rate of 25 μl/min. The Y•DTPA-RNase conjugate was coupled via amine chemistry to a CM5 sensor chip (ΔRU=300), and the purified hNGAL variant CL31 was applied at varying concentrations as indicated. The measured signal is shown as a gray line and the fitted curve as a black line in each case.
as §1

[13] = from the kinetic analysis, read-out: KD
[14] = read-out: affinity to the metal chelate ligand

## O=C(O)CCCCCN1C(=O)C2C(C1=O)C1(Cl)C(Cl)=C(Cl)C2(Cl)C1(Cl)Cl (stereo not shown) [hexachloronorbornene hapten, hexachloronorbornene N—(CH2)5—COOH]
[1]
  KD: at least micromolar

B1: Y^3+•DTPA-RNase: p-SCN-Bn-CHX-A″-DTPA covalently coupled to bovine ribonuclease A (about 1:1), charged with Y^3+; ligand is the chelate group (conjugate, UniProt P61823 27-150, looked up)
Ribonuclease pancreatic: KETAAAKFERQHMDSSTSAASSSNYCNQMMKSRNLTKDRCKPVNTFVHESLADVQAVCSQKNVACKNGQTNCYQSYSTMSITDCRETGSSKYPNCAYKTTQANKHIIVACEGNPYVPVHFDASV
modifications: CHX-A''-DTPA chelate with Y3+
notes: p-SCN-Bn-CHX-A″-DTPA covalently coupled to bovine ribonuclease A (about 1:1), charged with Y^3+; ligand is the chelate group
[2]
  koff: 0.1 s⁻¹
  kon: 998000 M⁻¹ s⁻¹
  Kd: 100 nM
[2]; listed as Y-DTPA-RNaseA
  Kd: 75 to 100 nM
[3]
  koff: 0.023 s⁻¹
  kon: 1.61e+06 M⁻¹ s⁻¹
[3]; [13]
  Kd: 14.3 nM
[4]
  koff: 0.0208 s⁻¹
  kon: 1.57e+06 M⁻¹ s⁻¹
[4]; [13]
  Kd: 13.2 nM
[5]
  koff: 0.00553 s⁻¹
  kon: 1.72e+06 M⁻¹ s⁻¹
  Kd: 3.2 nM
[5]; listed as Y-DTPA-RNaseA
  Kd: ~3 nM
[6]
  affinity improvement over Tb7: approximately 30 -fold
[7]; 5 μl/min
  koff: 0.00345 s⁻¹
  kon: 984000 M⁻¹ s⁻¹
  Kd: 3.5 nM
[7]; 5 μl/min, listed as Y-DTPA-RNaseA
  Kd: ~3 nM
[7]; half life of dissociation, listed as Y-DTPA-RNaseA
  τ1/2: ca. 200 s
[8]
  affinity improvement over Tb7: approximately 30 -fold
[9]
  binding activity: did not exhibit any significant binding activity
[10]; 5 μl/min
  koff: 0.000704 s⁻¹
  kon: 2.5e+06 M⁻¹ s⁻¹
[10]; 5 μl/min, from the kinetic analysis, read-out: KD
  Kd: 0.282 nM
[10]; [14]
  Kd: 0.282 nM
[11]
  Kd: 0.713 nM
  association rate constant: 296000 M⁻¹ s⁻¹
  dissociation rate constant: 0.000211 s⁻¹
[12]
  association rate constant: 446000 M⁻¹ s⁻¹
  dissociation rate constant: 0.000106 s⁻¹
  half life of dissociation: ca. 1.8 h
[12]; [14]
  Kd: 0.237 nM
